Measurements taken from paper PMC12404239.

What was measured:
[1] = target: SARS-CoV-2 spike glycoprotein (S) (SARS-CoV-2) (UniProt P0DTC2); assay: […], running buffer TBS, […]
[2] = target: influenza B haemagglutinin (HA) B/Maryland/15/16 (influenza B virus (B/Maryland/15/16)); assay: […], running buffer TBS, […]

| Substance | stoichiometry N [1] | stoichiometry N [2] |
| --- | --- | --- |
| SARS-CoV-2 spike glycoprotein (S) (from UniProt P0DTC2 14-1273) (natural protein) | 3 |  |
| influenza B haemagglutinin (HA) B/Maryland/15/16 (natural protein) |  | 3 |
